Molecular target: human CD4 on cells (human) (UniProt P01730)
Assay: cell-based or functional assay

MLR IL-2 Production (IC50): 0.02 µg/mL | MLR Proliferation (IC50): 0.02 µg/mL
Substance: CE9γ4λK, chimeric anti-CD4 antibody with human gamma 4 heavy chain constant domain and human kappa light chain constant region

— patent publication US7452534
